According to patent US20170088624A1 (Janssen / Centocor, published 2017):

T1: Macaca fascicularis (cyno) CD40 (cCD40) on cells (Macaca fascicularis (cynomolgus), UniProt P25942 21-277 (human entry))
T1 construct: CD40 on cyno mature DCs
T1 chain: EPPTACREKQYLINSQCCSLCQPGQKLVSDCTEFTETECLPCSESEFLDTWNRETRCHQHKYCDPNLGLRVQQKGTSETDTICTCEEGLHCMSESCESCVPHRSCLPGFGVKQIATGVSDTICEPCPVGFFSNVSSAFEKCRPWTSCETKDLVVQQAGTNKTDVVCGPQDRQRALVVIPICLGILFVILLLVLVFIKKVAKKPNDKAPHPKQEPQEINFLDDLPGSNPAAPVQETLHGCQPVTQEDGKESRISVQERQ

T2: cyno CD40 (SPR analyte) (Macaca fascicularis (cynomolgus), UniProt P25942 21-193 (human entry), limits assumed)
T2 construct: also called cCD40-ECD
T2 chain: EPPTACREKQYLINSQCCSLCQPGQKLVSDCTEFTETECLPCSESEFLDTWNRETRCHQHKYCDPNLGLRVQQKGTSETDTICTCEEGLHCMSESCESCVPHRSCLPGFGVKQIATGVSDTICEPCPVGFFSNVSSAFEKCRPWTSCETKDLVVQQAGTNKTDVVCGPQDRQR


Tests used:
[1] = molecular target: T3, Full length human CD40 (huCD40) on cells (human, UniProt P25942 21-277); experiment: flow cytometry, human mature DCs
T3 construct: CD40 on human mature DCs, human B cells, Raji cells and HEK-Blue CD40L cells (stably expressing human CD40); also called TNFRSF5
Method: (§1) Human monocytes were isolated from either frozen/fresh PBMC using CD14 negative isolation kit per manufacturer's protocol (MACS Miltenyi). Cyno monocytes were isolated from fresh PBMC using CD14 positive isolation kit per manufacturer's protocol (MACS Miltenyi). To generate DCs, monocytes were cultured for 5 days in complete media RPMI (Invitrogen) in the presence of 100 ng/ml human GM-CSF and human IL-4 (Peprotech) and media was replenished every 2 days. On day 5, DCs were stimulated with 100 ng/ml LPS (Sigma) for 24 hours. Cells were then stained with each of the tested CD40 antibody at different concentration in flow cytometry buffer (PBS+1% FBS; BD Bioscience) in 100 μl volume for 30 minutes on ice followed with two washes with flow buffer. Cells were then stained for additional 30 minutes on ice with APC-conjugated anti human IgG (Jackson ImmunoResearch) at the recommended dilution 1:100 and washed twice with flow buffer. Cells were analyzed for percent positive and Mean Fluorescence Intensity (MFI) to determine the antibody binding using Fortessa (BD Bioscience).
(§2) The experiments were conducted using assays described above. 20 antibodies were characterized further based on their binding to human DCs, cyno DCs, Raji cells and HEK-Blue™ CD40L cells.

[2] = molecular target: T1, Macaca fascicularis (cyno) CD40 (cCD40) …; experiment: flow cytometry, cyno mature DCs
Method: as §1, §2

cyno CD40 (SPR analyte) = molecular target: T2, cyno CD40 (SPR analyte); experiment: SPR ProteOn XPR36, mAb captured by anti-human IgG Fc, cyno CD40 as analyte, 25 C
Method: (§3) Affinity measurements were performed using Surface Plasmon Resonance (SPR) using a ProteOn XPR36 system (BioRad). […] Approximately 5000 RU (response units) of mAbs were immobilized. The kinetic experiments were performed at 25° C. in running buffer (DPBS+0.01% P20+100 μg/ml BSA). To perform kinetic experiments, 200 RU of mAbs were captured followed by injections of analytes (human or cyno CD40) at 5 concentrations (in a 4-fold serial dilution). The association phase was monitored for 3 minutes at 50 μL/min, then followed by 15 minutes of buffer flow (dissociation phase). The chip surface was regenerated with two 18 second pulses of 100 mM H₃PO₄ (Sigma, Cat#7961) at 100 μL/min.
(§4) The collected data were processed using ProteOn Manager software. First, the data was corrected for background using inter-spots. Then, double reference subtraction of the data was performed by using the buffer injection for analyte injections. The kinetic analysis of the data was performed using a Langmuir 1:1 binding model. The result for each mAb was reported in the format of Ka (On-rate), Kd (Off-rate) and KD (equilibrium dissociation constant).

[3] = molecular target: T3, Full length human CD40 (huCD40) on cells; experiment: cell-based or functional assay
[4] = molecular target: T3, Full length human CD40 (huCD40) on cells; experiment: flow cytometry, HEK-Blue CD40L cells
[5] = molecular target: T3, Full length human CD40 (huCD40) on cells; experiment: flow cytometry, Raji cells
human CD40 (SPR analyte) = molecular target: T4, human CD40 (SPR analyte) (human, UniProt P25942 21-193); experiment: SPR ProteOn XPR36, mAb captured by anti-human IgG Fc, CD40 as analyte, 25 C
T4 construct: also called huCD40-ECD
Method: as §3, §4
The parameters reported in this table were obtained from a 1:1 Langmuir binding model for all samples. Affinity, KD=kd/ka.

[6] = molecular target: T3, Full length human CD40 (huCD40) on cells; experiment: cell-based or functional assay; remark: listed apart in the source

| Binder | EC50 [1] [ng/mL] | EC50 [2] [ng/mL] | Kd (cyno CD40 (SPR analyte)) [nM] | koff (cyno CD40 (SPR analyte)) [s⁻¹] | kon (cyno CD40 (SPR analyte)) [M⁻¹ s⁻¹] | DC EC50, CD80 surface expression, with cross-linker [3] [ng/mL] | DC EC50, CD83 surface expression, with cross-linker [3] [ng/mL] | DC EC50, CD86 surface expression, with cross-linker [3] [ng/mL] | DC EC50, HLA-DR surface expression, with cross-linker [3] [ng/mL] | EC50 [4] [ng/mL] | EC50 [5] [ng/mL] | Kd (human CD40 (SPR analyte)) [nM] | koff (human CD40 (SPR analyte)) [s⁻¹] | kon (human CD40 (SPR analyte)) [M⁻¹ s⁻¹] | B cells EC50, CD23 surface expression, with cross-linker [6] [ng/mL] | B cells EC50, CD80 surface expression, with cross-linker [6] [ng/mL] | B cells EC50, CD83 surface expression, with cross-linker [6] [ng/mL] | B cells EC50, CD86 surface expression, with cross-linker [6] [ng/mL] | B cells EC50, HLA-DR surface expression, with cross-linker [6] [ng/mL] |
| --- | --- | --- | --- | --- | --- | --- | --- | --- | --- | --- | --- | --- | --- | --- | --- | --- | --- | --- | --- |
| C40M67 (antibody, human IgG1, kappa, V domains shown, Full-length IgG1/kappa; from phage display) VH: EVQLLESGGGLVQPGGSLRLSCAASGFTFSDYAMNWVRQAPGKGLEWVSGIKSGGSSKYYADSVKGRFTISRDNSKNTLYLQMNSLRAEDTAVYYCAKHVDFYRALDYWGQGTLVTVSS VL: EIVLTQSPGTLSLSPGERATLSCRASQSVKNSSLAWYQQKPGQAPRLLIYTASSRATGIPDRFSGSGSGTDFTLTISRLEPEDFAVYYCQQSSAPPWTFGQGTKVEIKR | 766 | 327 | 1.85 | 0.000341 | 184000 | 49.9 | 127 | 202 | 50.7 | 550 | 247 | 1.91 | 0.00031 | 163000 | 4.17 | 3.32 | 1.46 | 2.26 | 0.792 |
| C40M66 (antibody, human IgG1, kappa, V domains shown, Full-length IgG1/kappa; from phage display) VH: QVQLVQSGAEVKKPGSSVKVSCKASGGTFSSYAISWVRQAPGQGLEWMGGIIPIFGTANYAQKFQGRVTITADESTSTAYMELSSLRSEDTAVYYCARVRYSAWYRDSLDYWGQGTLVTVSS VL: not shown | 202 | 48.3 | 1.64 | 0.000577 | 352000 | 158 | 175 | 423 | 39.4 | 169 | 73 | 3.05 | 0.00116 | 378000 | 41.4 | 5.11 | 1.82 | 2.46 | 1.08 |
| C40M12 (antibody, human IgG1, lambda, V domains shown, Full-length IgG1/lambda; from OmniRat (OMT)) VH: EVQLVESGGGLVQPGGSLRLSCAASGFTFGSYAMSWVRQAPGKGLEWVSVISDSGGRTYYADSVKGRFTISRDYSKNTLYLQMNSLRAEDTAVYYCAKEGGDYYYYGMDVWGQGTTVTVSS VL: SYELTQPPSVSVSPGQTASIICSGDKLGDKYVCWYQQKPGQSPVVVIYHDNKRPSGIPERFSGSNSGNTATLTISGTQAMDEADYYCQVWDSSTVVFGGGTKLTVLG | 298 | 47.4 | 0.243 | 0.000441 | 1.81e+06 | 0.00393 | 332 | 502 | 301 | 112 | 29.9 | 0.136 | 0.000176 | 1.3e+06 | 125000 | 6.23 | 2.84 | 2.28 | 4.27 |
| C40M17 (antibody, human IgG1, lambda, V domains shown, Full-length IgG1/lambda; from OmniRat (OMT)) VH: EVQLVESGGGLVQPGGSLRLSCAASGFTFSSYAMSWVRQAPGRGLEWVSTINNSGGGTYYADSVKGRFTISRDNSKNTLYLHMNSLRAEDTAVYYCAKEGGKYYYYAMDVWGQGTTVTVSS VL: not shown | 127 | 53.7 | 0.0368 | 0.000157 | 4.27e+06 | 36 | 306 | 33 |  | 75.1 | 73.9 | 0.0294 | 8.06e-05 | 2.74e+06 | 1.95 | 0.879 | 0.838 | 4.57 | 1.57 |
| C40M59 (antibody, human IgG1, kappa, V domains shown, Full-length IgG1/kappa; from phage display) VH: QVQLVQSGAEVKKPGSSVKVSCKASGGTFSSYWISWVRQAPGQGLEWMGYIIPISGTARYAQKFQGRVTITADESTSTAYMELSSLRSEDTAVYYCAREPGYSSGLSVDYFDYWGQGTLVTVSS VL: not shown | 826 | 74 | 6.92 | 0.000995 | 144000 | 0.342 | 276 | 9.79 | 53.6 | 354 | 125 | 9 | 0.00106 | 118000 | 1240 | 10.6 | 10.8 | 15.4 | 4.84 |
